From publication PMC9482650, “Quantitative fragmentomics allow affinity mapping of interactomes” (Nature Communications, 2022) come the findings set out here.

Targets include MAGI3_6, Q5TCQ9; PDLIM4, P50479; MAGI1_3, Q96QZ7; PDZRN4_2, Q6ZMN7; MAGI1_6, Q96QZ7; MAGIX, Q9H6Y5; IL16_2, Q14005.
Experiment in all cases: holdup assay
Set-up in all cases: key: below the threshold = too weak to quantify, mostly under pKd 3.1 to 4
Holding throughout (conditions): plain residues with an end cap or a label only (N-terminal biotin on a linker: ttds)

A further test concerns the target T1, TJP3_1, O95049.
T1 sequence (O95049 6-103, limits assumed, looked up): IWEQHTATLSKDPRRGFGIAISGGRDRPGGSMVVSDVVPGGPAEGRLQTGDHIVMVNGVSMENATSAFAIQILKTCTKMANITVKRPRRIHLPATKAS

A further test has as its target T2, CNKSR1, Q969H4.
T2 sequence (Q969H4 191-295, limits assumed, looked up): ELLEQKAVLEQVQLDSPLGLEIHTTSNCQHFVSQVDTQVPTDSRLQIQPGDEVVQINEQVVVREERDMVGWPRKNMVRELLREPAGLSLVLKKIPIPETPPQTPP

Another test deals with T3, PARD6B, Q9BYG5.
T3 sequence (Q9BYG5 152-260, limits assumed, looked up): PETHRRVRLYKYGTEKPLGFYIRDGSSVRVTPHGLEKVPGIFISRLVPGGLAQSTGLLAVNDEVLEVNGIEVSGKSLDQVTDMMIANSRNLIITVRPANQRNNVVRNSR

In the next test the target is T4, PTPN4, P29074.
T4 sequence (P29074 512-599, limits assumed, looked up): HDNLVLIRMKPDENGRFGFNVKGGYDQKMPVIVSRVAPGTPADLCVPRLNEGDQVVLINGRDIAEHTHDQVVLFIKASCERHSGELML

The target of the next test is T5, MPDZ_6, O75970.
T5 sequence (O75970 1003-1099, limits assumed, looked up): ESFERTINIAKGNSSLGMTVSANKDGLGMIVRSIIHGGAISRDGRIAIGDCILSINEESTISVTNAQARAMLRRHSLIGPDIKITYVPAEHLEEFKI

In the next test the target is T6, INTU, Q9ULD6.
T6 sequence (Q9ULD6 180-273, limits assumed, looked up): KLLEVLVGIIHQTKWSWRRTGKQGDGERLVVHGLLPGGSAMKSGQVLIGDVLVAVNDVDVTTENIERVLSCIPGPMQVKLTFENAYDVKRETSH

A further test concerns the target T7, MAGI2_1, Q86UL8.
T7 sequence (Q86UL8 12-111, limits assumed, looked up): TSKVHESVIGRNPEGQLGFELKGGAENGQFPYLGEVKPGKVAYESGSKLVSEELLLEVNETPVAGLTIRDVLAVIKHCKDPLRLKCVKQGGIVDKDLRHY

Another test has as its target T8, PDZD8, Q8NEN9.
T8 sequence (Q8NEN9 361-459, limits assumed, looked up): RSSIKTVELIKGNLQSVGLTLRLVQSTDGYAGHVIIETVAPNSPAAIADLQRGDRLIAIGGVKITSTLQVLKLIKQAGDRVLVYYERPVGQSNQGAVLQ

In a further test the target is T9, NHERF1_1, O14745.
T9 sequence (O14745 9-104, limits assumed, looked up): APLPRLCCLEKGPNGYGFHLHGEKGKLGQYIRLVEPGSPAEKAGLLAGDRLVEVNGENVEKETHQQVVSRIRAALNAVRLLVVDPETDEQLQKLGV

The target of the next test is T10, DVL1, O14640.
T10 sequence (O14640 246-333, limits assumed, looked up): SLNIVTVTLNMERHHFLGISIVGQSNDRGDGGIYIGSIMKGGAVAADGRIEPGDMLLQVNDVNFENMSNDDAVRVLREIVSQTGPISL

The next test has as its target T11, NHERF3_2, Q5T2W1.
T11 sequence (Q5T2W1 129-225, limits assumed, looked up): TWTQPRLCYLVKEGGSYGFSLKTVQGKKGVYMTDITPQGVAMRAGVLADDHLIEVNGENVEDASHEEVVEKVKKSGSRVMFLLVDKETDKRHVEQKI

Another test has as its target T12, SHANK2, Q9UPX8.
T12 sequence (Q9UPX8 621-730, limits assumed, looked up): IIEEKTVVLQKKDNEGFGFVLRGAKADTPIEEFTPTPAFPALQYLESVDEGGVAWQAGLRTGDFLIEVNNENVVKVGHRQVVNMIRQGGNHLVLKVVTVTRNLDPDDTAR

For a further test, the target named is T13, MPDZ_7, O75970.
T13 sequence (O75970 1146-1253, limits assumed, looked up): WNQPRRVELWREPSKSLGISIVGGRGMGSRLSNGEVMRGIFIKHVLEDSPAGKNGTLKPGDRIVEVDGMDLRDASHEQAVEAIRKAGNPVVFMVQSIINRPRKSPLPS

Another test has as its target T14, TJP3_2, O95049.
T14 sequence (O95049 190-282, limits assumed, looked up): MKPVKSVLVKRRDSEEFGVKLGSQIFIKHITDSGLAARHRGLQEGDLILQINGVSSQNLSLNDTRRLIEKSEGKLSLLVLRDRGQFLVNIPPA

For a further test, the target named is T15, PDLIM3, Q53GG5.
T15 sequence (Q53GG5 1-94, limits assumed, looked up): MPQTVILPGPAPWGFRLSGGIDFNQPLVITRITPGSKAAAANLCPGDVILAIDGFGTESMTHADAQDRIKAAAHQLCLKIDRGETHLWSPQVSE

Sequence of IL16_2, Q14005 (Q14005 350-450): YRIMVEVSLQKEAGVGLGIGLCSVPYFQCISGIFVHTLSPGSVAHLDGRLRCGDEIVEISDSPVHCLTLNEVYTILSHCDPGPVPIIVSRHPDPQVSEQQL
Sequence of MAGI1_3, Q96QZ7 (Q96QZ7 638-725): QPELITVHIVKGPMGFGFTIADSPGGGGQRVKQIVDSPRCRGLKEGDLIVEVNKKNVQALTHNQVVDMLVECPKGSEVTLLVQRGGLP
Sequence of PDZRN4_2, Q6ZMN7 (Q6ZMN7 389-498): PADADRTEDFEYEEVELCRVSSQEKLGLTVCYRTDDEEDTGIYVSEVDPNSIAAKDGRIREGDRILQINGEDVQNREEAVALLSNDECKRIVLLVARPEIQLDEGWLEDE
Sequence of MAGI3_6, Q5TCQ9 (Q5TCQ9 1014-1103): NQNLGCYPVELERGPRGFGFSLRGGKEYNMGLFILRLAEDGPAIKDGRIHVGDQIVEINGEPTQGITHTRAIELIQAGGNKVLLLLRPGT
Sequence of PDLIM4, P50479 (P50479 1-83): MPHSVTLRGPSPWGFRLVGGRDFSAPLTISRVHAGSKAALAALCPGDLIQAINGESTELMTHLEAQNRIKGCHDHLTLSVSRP
Sequence of MAGIX, Q9H6Y5 (Q9H6Y5 118-211): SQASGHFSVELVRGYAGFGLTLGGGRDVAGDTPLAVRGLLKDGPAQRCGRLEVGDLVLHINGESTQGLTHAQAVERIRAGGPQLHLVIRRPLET
Sequence of MAGI1_6, Q96QZ7 (Q96QZ7 1146-1238): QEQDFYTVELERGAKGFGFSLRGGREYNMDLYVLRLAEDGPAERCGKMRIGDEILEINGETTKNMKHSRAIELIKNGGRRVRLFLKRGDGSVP

B1: RASSF6, Q6ZTQ3 (peptide)
chain: KLVIKTETTV
On to B1, for which the negative-log Kd (pKd) result with TJP3_1, O95049 was “below the threshold”; in the test with CNKSR1, Q969H4 it was “below the threshold”; in the test with PARD6B, Q9BYG5 it was “below the threshold”; with PTPN4, P29074 it was 4.33; in the test with MAGI3_6, Q5TCQ9, 4.15; in the test with MPDZ_6, O75970, “below the threshold”. Further, the negative logarithm of the Kd (pKd) result is “below the threshold” in the test with INTU, Q9ULD6; 4.09 with PDLIM4, P50479; “below the threshold” with MAGI2_1, Q86UL8; “below the threshold” with PDZD8, Q8NEN9; “below the threshold” with NHERF1_1, O14745; “below the threshold” with DVL1, O14640. The pKd result in the test with NHERF3_2, Q5T2W1 was “below the threshold”; with MAGI1_3, Q96QZ7, 4.32; with PDZRN4_2, Q6ZMN7, “below the threshold”; in the test with SHANK2, Q9UPX8, “below the threshold”; with MAGI1_6, Q96QZ7, “below the threshold”; with MPDZ_7, O75970, “below the threshold”. The pKd entry is “below the threshold” with TJP3_2, O95049; “below the threshold” with PDLIM3, Q53GG5; “below the threshold” with MAGIX, Q9H6Y5; 4.38 in the test with IL16_2, Q14005.

B2: HPV33-E6, P06427 (peptide)
chain: SRSRRRETAL
Take B2: the pKd result in the test with TJP3_1, O95049 was “below the threshold”; in the test with CNKSR1, Q969H4, “below the threshold”; in the test with PARD6B, Q9BYG5, “below the threshold”; in the test with PTPN4, P29074, 5.02; in the test with MAGI3_6, Q5TCQ9, “below the threshold”; in the test with MPDZ_6, O75970, “below the threshold”. Also, the negative-log Kd (pKd) with INTU, Q9ULD6 was 4.54; in the test with PDLIM4, P50479, “below the threshold”; in the test with MAGI2_1, Q86UL8 it was “below the threshold”; with PDZD8, Q8NEN9, “below the threshold”; with NHERF1_1, O14745, “below the threshold”; with DVL1, O14640 it was 4.23. Also, the pKd entry in the test with NHERF3_2, Q5T2W1 was “below the threshold”; with MAGI1_3, Q96QZ7 it was “below the threshold”; with PDZRN4_2, Q6ZMN7, “below the threshold”; with SHANK2, Q9UPX8, “below the threshold”; in the test with MAGI1_6, Q96QZ7, “below the threshold”; with MPDZ_7, O75970, “below the threshold”. Moreover, the pKd entry is “below the threshold” in the test with TJP3_2, O95049; “below the threshold” with PDLIM3, Q53GG5; “below the threshold” with MAGIX, Q9H6Y5; “below the threshold” in the test with IL16_2, Q14005.

B3: FZD7, O75084 (peptide)
chain: SHSSKGETAV
As to B3, the pKd result with TJP3_1, O95049 is “below the threshold”; with CNKSR1, Q969H4 it was “below the threshold”; with PARD6B, Q9BYG5, “below the threshold”; with PTPN4, P29074, “below the threshold”; with MAGI3_6, Q5TCQ9 it was 4.71; with MPDZ_6, O75970, “below the threshold”. Besides, the negative-log Kd (pKd) entry in the test with INTU, Q9ULD6 is “below the threshold”; with PDLIM4, P50479 it was “below the threshold”; with MAGI2_1, Q86UL8 it was 4.39; with PDZD8, Q8NEN9, “below the threshold”; with NHERF1_1, O14745 it was “below the threshold”; with DVL1, O14640, “below the threshold”. The negative-log Kd (pKd) result in the test with NHERF3_2, Q5T2W1 is “below the threshold”; with MAGI1_3, Q96QZ7, “below the threshold”; with PDZRN4_2, Q6ZMN7, “below the threshold”; with SHANK2, Q9UPX8 it was “below the threshold”; with MAGI1_6, Q96QZ7, 4.7; with MPDZ_7, O75970 it was “below the threshold”. For the same molecule, the pKd result is given as “below the threshold” with TJP3_2, O95049; “below the threshold” with PDLIM3, Q53GG5; “below the threshold” in the test with MAGIX, Q9H6Y5; “below the threshold” in the test with IL16_2, Q14005.

B4: RALBP1, Q15311 (peptide)
chain: PSRDRKETSI
Take B4: the pKd result is “below the threshold” with TJP3_1, O95049; “below the threshold” in the test with CNKSR1, Q969H4; “below the threshold” with PARD6B, Q9BYG5; 3.83 with PTPN4, P29074; “below the threshold” with MAGI3_6, Q5TCQ9; “below the threshold” with MPDZ_6, O75970. Besides, the negative-log Kd (pKd) result with INTU, Q9ULD6 was “below the threshold”; in the test with PDLIM4, P50479, “below the threshold”; in the test with MAGI2_1, Q86UL8 it was 3.74; with PDZD8, Q8NEN9 it was “below the threshold”; in the test with NHERF1_1, O14745, “below the threshold”; with DVL1, O14640, “below the threshold”. Further, the negative logarithm of the Kd (pKd) entry with NHERF3_2, Q5T2W1 is “below the threshold”; with MAGI1_3, Q96QZ7, “below the threshold”; in the test with PDZRN4_2, Q6ZMN7 it was “below the threshold”; with SHANK2, Q9UPX8, “below the threshold”; with MAGI1_6, Q96QZ7, “below the threshold”; with MPDZ_7, O75970, “below the threshold”. Also, the negative-log Kd (pKd) result with TJP3_2, O95049 is “below the threshold”; with PDLIM3, Q53GG5, “below the threshold”; with MAGIX, Q9H6Y5, “below the threshold”; in the test with IL16_2, Q14005, “below the threshold”.

For orientation: pKd means the Kd on a negative log10 scale, so that one unit is a factor of ten.
